T1: putative esterase / UPF0227 protein ExploCarb_3811S_S4_483_length_13114_cov_941_5 (Sulfurihydrogenibium sp., UniProt A0A2J6WYH8)
T1 construct: gene C0178_06060
T1 sequence (A0A2J6WYH8 1-191): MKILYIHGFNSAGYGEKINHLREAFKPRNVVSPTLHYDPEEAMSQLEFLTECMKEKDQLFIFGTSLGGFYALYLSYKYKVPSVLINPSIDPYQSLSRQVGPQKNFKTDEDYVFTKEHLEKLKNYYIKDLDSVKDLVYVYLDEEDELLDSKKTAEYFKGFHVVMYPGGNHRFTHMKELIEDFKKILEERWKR


Assays:
[1] = biological target: T1, putative esterase / UPF0227 protein ExploCarb_3811S_S4_483_length_13114_cov_941_5
[2] = substrate: CC(=O)Oc1ccc([N+](=O)[O-])cc1; experiment: pNP-ester hydrolysis kinetics; type: biochemical, Sulfurihydrogenibium sp.; details: pH 8.0, 70 °C, substrate up to 0.7 mM
[3] = substrate: CCCC(=O)Oc1ccc([N+](=O)[O-])cc1; experiment: pNP-ester hydrolysis kinetics; type: biochemical, Sulfurihydrogenibium sp.; details: pH 8.0, 70 °C, substrate up to 0.7 mM
[4] = substrate: CCCCCCCC(=O)Oc1ccc([N+](=O)[O-])cc1; experiment: pNP-ester hydrolysis kinetics; type: biochemical, Sulfurihydrogenibium sp.; details: pH 8.0, 70 °C, substrate up to 0.7 mM

Molecule | competition with FP-alkyne labelling of purified esterase (pre-incubation) [1] | Km [2] | Km [3] | Km [4]
CCOP(=O)(OCC)Oc1ccc([N+](=O)[O-])cc1 [paraoxon] | could be strongly diminished by pre-incubation with the generic serine esterase inhibitor paraoxon |  |  | 
putative esterase / UPF0227 protein ExploCarb_3811S_S4_483_length_13114_cov_941_5 (Sulfurihydrogenibium sp.) (protein, 191 amino acids; codon-optimized gene in pET-28b(+), expressed in E. coli Rosetta(DE3), purified; motif G63-T64-S65-L66-G67) MKILYIHGFNSAGYGEKINHLREAFKPRNVVSPTLHYDPEEAMSQLEFLTECMKEKDQLFIFGTSLGGFYALYLSYKYKVPSVLINPSIDPYQSLSRQVGPQKNFKTDEDYVFTKEHLEKLKNYYIKDLDSVKDLVYVYLDEEDELLDSKKTAEYFKGFHVVMYPGGNHRFTHMKELIEDFKKILEERWKR |  | 120 µM | 180 µM | 160 µM
